Experimental data as given in publication PMC6262902, “Characterization of a New Cyclohexylamine Oxidase From Acinetobacter sp. YT-02” (Frontiers in Microbiology, 2018).

B1: CHAOYT–02 (Acinetobacter sp. YT-02) (protein)
chain: MSVNDNRESASYDADVIVVGAGPSGSYAAKLLHDRGISVKLVEAKDRVGGRTWSSKTEAQGGPIDFGGQWIGETHVLLPELGEELGLETVSSIKPGNDIFVFNGQVTVGEEDQAPASASWTAELTRSFELLDEAGARLGWEAPWASPAVEALDGMTVAQWLDENVSSDEVRMIHEVMVNILNGANTTEVSMAYWAYFVHQGEGIESLIGTRSGAQIAWFVGGMGQVTELIADRLGDNLHLNWPVTSIEQQDSGVVVSSGDRRLTAKYVILATPPSDASRMIFDQPLPAKRAQLQARAPMGRLAKIQVRYRDAFWQEENLSGAAFVCGDLAFWVFDGSKPSDSLATIVGFIGGKHLDLWHSFTPEEREARFIDMLVTNIGEKARDTVYYHETDWTEQPWTGGAPVTFMPTGLLSSSGSALRGSAGRIHFAGTEAAPMWSGYIEGALRAGKIAATDIIARLG
notes: full-length ORF of 460 residues, no signal peptide; pET-28b 6xHis tag and vector residues kept (53,534 Da with tag); E. coli BL21 (DE3); dimer about 91 kDa; FAD enzyme

Key:
[1] = target: cyclohexylamine oxidase from Acinetobacter sp. YT-02 (Acinetobacter sp. YT-02); experiment: SEC; gel filtration on Superose 6 Increase 10/300GL; 10 mM phosphate buffer, pH 7.4, 140 mM NaCl; calibrated with apoferritin (443 kDa), alcohol dehydrogenase (150 kDa), bovine albumin (66 kDa), carbonic anhydrase (29 kDa)
purified protein = substrate: NC1CCCCC1; experiment: purified protein; format: biochemical, Acinetobacter sp. YT-02; settings: 50 °C, pH 7.0 sodium phosphate

Molecule | stoichiometry N [1] | Km (purified protein) [µM] | Vmax (purified protein) [µM/min] | kcat (purified protein) [s⁻¹] | kcat/Km (purified protein) [M⁻¹ s⁻¹]
cyclohexylamine oxidase from Acinetobacter sp. YT-02 (enzyme) | 2 |  |  |  | 
B1 |  | 250 ± 20 | 4300 | 523 ± 10 | 2.08e+06
